Reference: PMC12083643, “Closed State Structure of the Pore Revealed by Uncoupled Shaker K+ Channel” (Research Square, 2025)

Molecular target: the molecule itself
Test: cryo-EM structure; single-particle cryo-EM of the purified channel in 0.02% GDN, 150 mM KCl, 2 mM TCEP, 1 mM EDTA, 50 mM TRIS pH 7.5; about 0.7 mg/mL; refinement with C4 symmetry

B1: Shaker-IR-I384R (natural protein, UniProt P08510 1-655, looked up)
chain: MAAVALREQQLQRNSLDGYGSLPKLSSQDEEGGAGHGFGGGPQHFEPIPHDHDFCERVVINVSGLRFETQLRTLNQFPDTLLGDPARRLRYFDPLRNEYFFDRSRPSFDAILYYYQSGGRLRRPVNVPLDVFSEEIKFYELGDQAINKFREDEGFIKEEERPLPDNEKQRKVWLLFEYPESSQAARVVAIISVFVILLSIVIFCLETLPEFKHYKVFNTTTNGTKIEEDEVPDITDPFFLIETLCIIWFTFELTVRFLACPNKLNFCRDVMNVIDIIAIIPYFITLATVVAEEEDTLNLPKAPVSPQDKSSNQAMSLAILRVIRLVRVFRIFKLSRHSKGLQRLGRTLKASMRELGLLIFFLFIGVVLFSSAVYFAEAGSENSFFKSIPDAFWWAVVTMTTVGYGDMTPVGVWGKIVGSLCAIAGVLTIALPVPVIVSNFNYFYHRETDQEEMQSQNFNHVTSCPYLPGTLGQHMKKSSLSESSSDMMDLDDGVESTPGLTETHPGRSAVAPFLGAQQQQQQPVASSLSMSIDKQLQHPLQQLTQTQLYQQQQQQQQQQQNGFKQQQQQTQQQLQQQQSHTINASAAAATSGSGSSGLTMRHNNALAVSIETDV
notes: Subcloned into a modified pEG BacMam vector with a C-terminal HRV 3C protease site, eGFP and 8x-His; the channel was released from the beads by HRV 3C protease; PDB 7SIP (Shaker-IR without I384R) was the template for model building; also called uncoupled channel; uncoupled I384R mutant; not shown: eGFP, C-terminal, cleaved; 8x-His, C-terminal, cleaved
  stoichiometry N: 4
